This assay addresses CTD1, C-terminal domain of major ampullate spidroin 1 of Latrodectus hesperus (Latrodectus hesperus). As to the kind of experiment: non-reducing SDS-PAGE; non-reducing SDS-PAGE of fractions of the Ni-IMAC purification of CTD1; disulphide-linked dimer.

Broadly, the stoichiometry N is a count of units in the complex or per binding partner. “CTD1, C-terminal domain of major ampullate spidroin 1 of Latrodectus hesperus (domain or fragment)”: the stoichiometry N worked out at 2.

The values above are taken from publication PMC7327021.
